This assay has as its target WD-repeat protein-5 (WDR5), S22-334 (UniProt P61964 22-334). Put plainly: ITC. (Isothermal titration calorimetry measures the heat released or taken up as one component is titrated into another.)

B1: MLL4 Win motif peptide (MLL4Win) (peptide)
peptide: GAARAEVYLRK
B1 returned an equilibrium dissociation constant (Kd) of 30 nM.

B2: SET1B Win motif peptide (SET1BWin) (peptide)
peptide: GCARSEGFYTI
Regarding B2, binding was characterised by a dissociation constant (Kd) of 100 nM.

B3: MLL1 Win motif peptide (MLL1Win) (peptide)
peptide: GSARAEVHLRK
Consider B3, for which the affinity, expressed as Kd, was 1130 nM.

B4: MLL2 Win motif peptide (MLL2Win) (peptide)
peptide: GCARSEPKILT
B4 showed a Kd of 160 nM. Against the preceding molecule, the Kd is about 7.1-fold lower.

B5: SET1A Win motif peptide (SET1AWin) (peptide)
peptide: GSARSEGYYPI
B5 yielded a Kd of 260 nM.

B6: MLL3 Win motif peptide (MLL3Win), C4708S substituted (peptide)
peptide: GSARAEPKMSA
In turn, B6 displayed a Kd of 2030 nM.

By Kd is commonly meant the constant that tells how readily two partners part at equilibrium. Higher therefore signals weaker binding.

Source of the values: PMC3351189 (Nucleic Acids Research, 2012).
